Measured values: patent US20130267423A1, “PEPTIDE LIBRARIES FOR SCREENING AND OTHER APPLICATIONS” (priority 2010, published 2013)

What was measured:
C-reactive protein (CRP) [1] = target: T1, C-reactive protein (CRP) (Homo sapiens, UniProt P02741); assay: Affinity measurements by surface plasmon resonance (Biacore T100, CRP immobilized on CM5 chip); assay type: binding; settings: CRP immobilized approx. 5000 RU; peptide 5 micromolar down to 2 nM; 25° C.; FIG. 8A
T1 sequence (P02741 19-224): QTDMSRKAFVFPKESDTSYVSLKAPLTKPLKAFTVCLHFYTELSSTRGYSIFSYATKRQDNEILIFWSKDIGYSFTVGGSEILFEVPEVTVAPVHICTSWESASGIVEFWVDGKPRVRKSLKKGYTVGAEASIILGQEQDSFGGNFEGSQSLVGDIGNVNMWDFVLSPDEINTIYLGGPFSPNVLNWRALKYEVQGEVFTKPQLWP
Procedure: Affinity measurements. Affinity measurements were performed using a Biacore T100 system and research grade CM5 sensor chips (GE Heathcare). The instrument was primed with HBS-EP+ (GE Heathcare) buffer. Flow cell 1 (or 3) was used as a reference to subtract nonspecific binding, drift, and the bulk refractive index, while flow cell 2 (or 4) was immobilized with CRP following standard procedures. A 1:1 mixture of 0.4 M EDC and 0.1 M NHS was used to activate flow cell 2 (or 4), and 0.1 mg/mL CRP solution was injected. Blocking of the remaining activated groups was done with a 1 M solution of ethanolamine (pH 8.5). CRP was immobilized onto the sensor chip surface by approximately 5000 response units (RU). The instrument was then primed using running buffer (HBS-EP+). Each of the 6-mer ligand candidates identified were dissolved in HBS-EP+ buffer to produce 5 micromolar peptide stock solutions for each peptide, which were serially diluted by a factor of 2 to produce a concentration series down to 2 nM. For a given affinity measurement, these series of peptide solutions successively were injected into flow cell 2 (or 4) for 3 min of contact time, 5 min of dissociation time, and 3.5 min of stabilization time using a flow rate of 100 microliter/min at 25° C. Flow cell 2 (or 4) was regenerated by glycine 2.5 (GE Healthcare) after injection of each peptide solution.

C-reactive protein (CRP) [2] = target: T1, C-reactive protein (CRP); assay: Dot blot selectivity/sensitivity assay with biotinylated 6-mer peptides; assay type: binding; settings: biotinylated 6-mer at 1 micromolar in 5% nonfat milk/TBS-T; CRP 20 micrograms to 2 ng per spot; FIG. 8B
Procedure: Dot blot selectivity/sensitivity assays in serum. […] CRP solution was prepared as 10 mg/mL stocks in PBS buffer (pH 7.4). A dilution series of CRP solution was applied to a nitrocellulose membrane, typically ranging from 20 micrograms to 2 ng per spot. The membrane was blocked at room temperature for 2 h in 5% nonfat milk/TBS-T. The membrane was then washed with TBS-T. The biotinylated 6-mer solution was prepared at 1 micromolar in 5% nonfat milk/TBS-T and incubated over the membrane for 2 h at room temperature. After washing three times with TBS-T for 10 min, 1:3000 streptavidin-HRP (Abeam) prepared in 0.5% milk/TBS-T was added to the membrane and incubated for 2 h. After washing three times with TBS-T for 10 min, the membrane was treated with chemiluminescent reagents (Amersham ECL plus Western blotting detection reagents, GE Healthcare) and then immediately developed on film.

binding affinity to CRP / response in SPR (C-reactive protein (CRP) [1])	binding affinity to CRP / response in dot blot (C-reactive protein (CRP) [2])	Substance
highest response	highest response	LYFRRW (Synthetic Peptide Fragment) [6-mer CRP ligand candidate from focused library B screening]
highest response	highest response	WKFRYK (Synthetic Peptide Fragment) [6-mer CRP ligand candidate from focused library A screening]
